Measurements published in publication PMC5952258 (ACS Infectious Diseases, 2018).

Biological target: the molecule itself
Experiment: crystal structure; sitting drop vapor diffusion at 18 °C; 25% (w/v) PEG 3350, 0.1 M Bis-Tris pH 5.6, 0.1 M ammonium sulfate; resolved to 2.0 Å

B1: Rv2466c C22S mutant (enzyme)
chain: not shown
B1: binds.
